Common to all, as to assay: EMSA
For orientation: A gel shift assay detects complexes by their altered migration in electrophoresis.

Series [1] concerns the target T1, LuxR (Vibrio harveyi, UniProt P21308 1-205).
T1 sequence: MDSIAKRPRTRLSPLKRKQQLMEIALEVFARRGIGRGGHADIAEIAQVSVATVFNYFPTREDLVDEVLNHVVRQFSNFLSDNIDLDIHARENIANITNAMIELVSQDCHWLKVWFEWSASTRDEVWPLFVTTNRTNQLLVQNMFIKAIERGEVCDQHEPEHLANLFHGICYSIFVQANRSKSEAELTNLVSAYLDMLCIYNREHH

The target in series [2] is T2, LuxR T52M/I24V (Vibrio harveyi, UniProt P21308 1-205, T52M;I24V).
T2 sequence: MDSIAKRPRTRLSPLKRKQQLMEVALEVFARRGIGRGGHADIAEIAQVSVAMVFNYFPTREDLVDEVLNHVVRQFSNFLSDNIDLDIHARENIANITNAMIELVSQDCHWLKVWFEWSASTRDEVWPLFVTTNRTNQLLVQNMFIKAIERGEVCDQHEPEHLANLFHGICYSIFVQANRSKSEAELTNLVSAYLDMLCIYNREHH

Series [3] concerns the target T1, LuxR. The source holds these as a separate data set.
The target in series [4] is T1, LuxR. The source holds these as a separate data set.
For another series, the target named is T3, LuxR L139P (Vibrio harveyi, UniProt P21308 1-205, L139P).
T3 sequence: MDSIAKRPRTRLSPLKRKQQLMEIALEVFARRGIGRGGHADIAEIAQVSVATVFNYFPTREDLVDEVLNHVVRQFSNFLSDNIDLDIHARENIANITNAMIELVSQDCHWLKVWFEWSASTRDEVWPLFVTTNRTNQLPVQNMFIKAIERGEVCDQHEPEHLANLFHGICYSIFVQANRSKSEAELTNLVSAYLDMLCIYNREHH

Series [5] has as its target T1, LuxR. This is another data set of the same source.
In series [6] the target is T4, LuxR N55I (Vibrio harveyi, UniProt P21308 1-205, N55I).
T4 sequence: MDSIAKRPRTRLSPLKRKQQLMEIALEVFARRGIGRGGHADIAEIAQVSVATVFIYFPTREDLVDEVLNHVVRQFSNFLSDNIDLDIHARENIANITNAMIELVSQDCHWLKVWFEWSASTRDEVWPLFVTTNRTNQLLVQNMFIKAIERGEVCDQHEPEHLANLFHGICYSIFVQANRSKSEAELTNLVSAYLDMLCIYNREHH

The target of series [7] is T2, LuxR T52M/I24V. This is another data set of the same source.
For series [8], the target named is T1, LuxR. This is another data set of the same source.
The target of series [9] is T4, LuxR N55I. This is another data set of the same source.

Read-outs that look alike come from different tables or passages of the source.

B1: P05222 28 bp (dsDNA)
DNA 1: CTAGTACTGACAAAAAAGTTAATATTTT
DNA 2: AAAATATTAACTTTTTTGTCAGTACTAG
B1: the binding result with LuxR [1] is given as “binds”.

B2: P05222 site 31mer (dsDNA)
DNA 1: CTAGTACTGACAAAAAAGTTAATATTTTGTT
DNA 2: AACAAAATATTAACTTTTTTGTCAGTACTAG
One may read the Kd as the constant that tells how readily two partners part at equilibrium. Low readings indicate a tighter complex, high ones a looser complex. B2: the dissociation constant (Kd) came out at 56.6 nM with LuxR T52M/I24V [2] and 0.7 nM with LuxR [3].

B3: aphA promoter BS* randomized 31mer (dsDNA)
DNA 1: TTTACGTTACTTGTTGGTAAATTTTATATAT
DNA 2: ATATATAAAATTTACCAACAAGTAACGTAAA
For the molecule B3, in the series with LuxR [4], the binding result was “no binding”.

B4: PluxC site 3 (dsDNA)
DNA 1: TTATTTAAATGATATAAATATAAATAACATCA
DNA 2: TGATGTTATTTATATTTATATCATTTAAATAA
Consider B4, for which the dissociation constant Kd with LuxR [3] came out at 0.6 nM.

B5: PluxC site 1 (dsDNA)
DNA 1: TTACTTATTTATAGTGTTACAAATAACATTA
DNA 2: TAATGTTATTTGTAACACTATAAATAAGTAA
Consider B5, for which the binding result in the series with LuxR L139P was “binds”; in the series with LuxR T52M/I24V [2], “no binding”; in the series with LuxR [5] it was “binds”; with LuxR N55I [6], “binds”.

B6: P05222 site G to T + T to C (dsDNA)
DNA 1: GTGCAACAAAATATTGACTTTTTTGTCAGTAAGGATCCGGTGATTG
DNA 2: CAATCACCGGATCCTTACTGACAAAAAAGTCAATATTTTGTTGCAC
Turning to B6, the binding result with LuxR T52M/I24V [7] and with LuxR [8] was “binds” throughout.

B7: PluxC site 2 (dsDNA)
DNA 1: ACTAATTATAAATAAATCAAACTATAATTAGA
DNA 2: TCTAATTATAGTTTGATTTATTTATAATTAGT
B7: the results for the binding result with LuxR L139P and in the series with LuxR N55I [9] were “binds” and “no binding”, respectively. In the series with LuxR [3], binding was put at a Kd of 103 nM.

The record behind these values is PMC3705450.
